Source: the nanobody polyreactivity screen of Harvey et al. (2022)

Assay: yeast display, Sf9 membrane polyspecificity reagent, FACS + sequencing; frameworks hold sequencing errors
Procedure, shortened: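 A synthetic nanobody library was expressed on Saccharomyces cerevisiae BJ5465 by galactose induction for 36–48 hours. The library was stained for 1 hour at 4 °C with 10% biotinylated, detergent-solubilized Sf9 membrane reagent and enriched with streptavidin microbeads before FACS. Low and high (top ~1%) gates were set on anti-HA fluorescence for expression and streptavidin fluorescence for reagent binding, and each polyreactivity label reflects the gate of origin.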

Sequence: QVQLVESGGGLVQAGGSLRLSCAASGRTFYIYAMGWYRQAPGKERELVADITSGGSTYYADSVKGRFTISRDNAKNTVYLQMNSLKPEDTAVYYCAADWVTFYSYTEYDYWGQGTQVTVSS
- polyreactivity (PSR sort gate): low polyreactivity

Sequence: QVQLVESGGGLVQAGGSLRLSCAASGSTFKGYAMGCYRQAPGKERELVAAISWSAGSTYYADSVKGRFTISRDNAKNTVYLQMNSLKPEDTAVYYCAKASVALRYYSYSLGRDYWGQGTQVTVSS
- polyreactivity (PSR sort gate): low polyreactivity

Sequence: QVQLVESGGGLVQAGGSLRLSCAASGFIFQAYAMGWYRQAPGKERELVAAISSSGGSTYYADSVTGRFTISRDNAKNTVYLQMNSLKPEDTAVYYCAALRYVKMLAQAYEYWGQGTQVTVSS
- polyreactivity (PSR sort gate): high polyreactivity

Sequence: QVQLVESGGGLVQAGGSLRLSCAASGSIFNPYAMGWYRQAPGKQRELVAAISYTGGRTYYADSVKGRFTISRDNAQNTVYLQMNSLKPEDTAVYYCIADYIYSFYWSFYEYDYWGQGTQVTVSS
- polyreactivity (PSR sort gate): high polyreactivity

Sequence: QVQLVESGGGLVQAGGSLRLSCAASGRIFVYYAMGWYRQAPGQEREFVATISSTGGSTYYADSVKGRFTISRDNAKNTVYLQMNSLKPEDTAVYYCAVRGWYPGVRYDYWGQGTQVTVSS
- polyreactivity (PSR sort gate): low polyreactivity

Sequence: QVQLVESGGGLVQAGGSLRLSCAASGYILYGNTMGWYRQAAGKERELVAVISGGGSTNYADSVKGRFTISRDNAKNTVYLQMNSLKPQDTAVYYCAVKTNQAGYDYWGQGTQVTVSS
- polyreactivity (PSR sort gate): low polyreactivity

Sequence: QVQLVESGGGLVQAGGSLRLSCAASGSTFGYNAMGWYRQAPGKERELVAAITRRGGITYYADSVKGRFTISRDNAKNTVYLQMNSLKPEDTAVYYCAKRLGYPGNSRNYYYWGQGTQVTVSS
- polyreactivity (PSR sort gate): high polyreactivity

Sequence: QVQLVDSGGGLVQAGGSLSLICAASGSNFRYYAMGWYRKAPGKERELVDAINWSGGSTYYADSVKGRFTSSRDNAKNTVYLQMNSLKPEHTAVYSCNAVGWRSLHRDYWGQGTQVTLSS
- polyreactivity (PSR sort gate): high polyreactivity

Sequence: QVQLVESGGGLVQAGGSLRLSCAASGRIFYVYTMGWYRQAPGKERELVASIRRSGGSTYYADSVKGRFTISRDNAKNTVYLQMNSLKPEDTAVYYCAARYNSAANDKRYYYWGQGTQVTVSS
- polyreactivity (PSR sort gate): high polyreactivity

Sequence: QVQLVESGGGLVQAGGSLRLSCAASGFTFRDYAMGWYRPAPGKERELVAAITRSGGRTYYADSVKGRFTISRDNAKNTVYLQMNSLKPEDTAVYYCAAQLPYYGYDYWGQGTQVTVSS
- polyreactivity (PSR sort gate): low polyreactivity

Sequence: QVQLVESGGGLVQAGGSLRLSCSASGNIFKRYTMGWYRQAPGKERELVAAISGGDSTNYADSVKGRFTISRDNAKKTVYLQMNCLKPEDTAVYYCAGGGLTLWHGYILGYWGQGTQVTVSS
- polyreactivity (PSR sort gate): low polyreactivity

Sequence: QVQLVESGGGLVQAAGSLRLSCAASGRIFFAYAMGWNRQEPGKERELVASITSGGSTNYADSVKGRFTISRDNAKNTVYLQMNSLKPEDTAVYYCAARSRFSNLYVRFYYWGQGTQVTVSS
- polyreactivity (PSR sort gate): high polyreactivity

Sequence: QVQLVESGGGLVQAAGSLRLSCAASVNTFFKNAMGWYRQAPGKERELVAAISKGGGSTYYADSVKGRFTISRDNAKNTVYLQMNSLKPEDTAVYYCAADTFGVYASTYDYWGQGTQVTVSS
- polyreactivity (PSR sort gate): high polyreactivity

Sequence: QVQLVESGGGLVQAGGSLRLSCAASGFTFSNYAMGWYRQAPGKERELVAAISFRTGRTYYADSVKGRFTISRDNAKNTVYLQMNSLKPEDTAVYYCAAVVQSSEPVEYDYWGQGTQVTVSS
- polyreactivity (PSR sort gate): high polyreactivity

Sequence: QVQLVESGGGLVQAGGSLRLSCAASGSIFVRNAMGWYRQAPGKERELVAAITARGGSTYYADSVKGRFTISRDNAKNTVYLLMHSLKPEDTAVYYCARSYYYRGWAQWRYDYWGQGTQVTVSS
- polyreactivity (PSR sort gate): high polyreactivity

Sequence: QVQLVESGGGLVQAGGSLRLSCAASGITFYIYAMGWYRQAPGKERELVAAITWGGDGSTRYADSVKGRFTISRDNAKNTVYLQMNSLKPEDTAVYYCAGGSTFVLFDDMDYWGQGTQVTVSS
- polyreactivity (PSR sort gate): low polyreactivity

Sequence: QVQLVESGGGLVQAGGSLRLSCAASGTFYYYAMGWYRQAPGKERDLVAGITSGGSTYYADSVKGRFTISRDNAKNTVYLQMNSLKPEDTAVYYCNTKVISRTSERRGNGFTRYDYWGQGTQVTVSS
- polyreactivity (PSR sort gate): low polyreactivity

Sequence: QVQLVESGGGLVQAGGSLRLSCAASGFTFVYYAMGWYRQAPGKEREFAYYADSVKGRFTISRDNAKNTVYLQMNSLKPEDTAVYYCNAAEDEGDRPITQVGYDYWGQGTQVTVSS
- polyreactivity (PSR sort gate): low polyreactivity

Sequence: QVQLVESGGGLVQAGVSLRLSCAASGRIFSPYAMGWYRQAPGKERELVAAIDWDGGGTYYADSVKGRFTISRDNAKNTVYLQMNSLKPEDTAVYYCAAETDLANGTSPSDYCGQGTQVTVSS
- polyreactivity (PSR sort gate): low polyreactivity

Sequence: QDQLVESGGGLVQAGGSLRLSCAASGSIFSNNAMGWYRQAPGKERELVATITFSGGNTYYADSVKGRFTISRDNAKNTVYLQMNSLKPEDTAVYYCNADRYPVGTAREYDSWGQGTQVTVSS
- polyreactivity (PSR sort gate): low polyreactivity

Sequence: QVQLVESGGGLVQAGGSLRLSCAAYGSSFNHYSMGWYRQAPGKERELVAAISWNGGSTYYADSVKGRFTISRDNAKNTVYLQMNSLKPEDTAVYYCNALVTTTPRYDYWGQGTQVTVSS
- polyreactivity (PSR sort gate): high polyreactivity

Sequence: QVQLVESVGGLVQAGGSLRLSSAASGRTFKGNAMGCYSQAHGKERELVAVITGSGGSTYYADSVKGRFTISRDNAKNTVYLQMNSLKPEDTAVYYCNKKLQRRSWYVYWGLGTQVTVSS
- polyreactivity (PSR sort gate): low polyreactivity

Sequence: QVRLVESGGGLVQAGGSLRLSCAASGSTFVYYAMGRYRQAPGNERELVAAITSGDSTYYADSVKGRFTISRDNAKNTVYLQMNSLKPEDTAVYYCAKRISYLPVEMDYWGQGTQVSVSS
- polyreactivity (PSR sort gate): low polyreactivity

Sequence: QVQLVESGGGLVQAGGCLRISCAASGSTFPNYAMGWYREAPGKERELVARISYNVGRTYYADSVKGRFTISRDNAKNTVYLQMNSLKPEDTAVYYCAAGVGWRYRVRWYYSLGDYWGQGTQVTVSS
- polyreactivity (PSR sort gate): high polyreactivity

Sequence: QVQLVESGGGLVQAGGSLRLSCAASGSTFIANAMGWYRKAPGKERELVAAISQSGDSTYYADSVKGRFTISRENAKNTVYLQMNSMKPEDTAVYYCAAEDVDGYEYWGQGTQVTVSS
- polyreactivity (PSR sort gate): high polyreactivity

Sequence: QVQLVASGGGLVQAGGSLRLSFAASGRNFAYNTMGWYRQAPGKERELVAAITWSGGGKYYADSVKGRFTISRDNAKNTVYLHMNSLKPEDTAVYYCAVVYASPRARYRYYYWGQGTQVTVSS
- polyreactivity (PSR sort gate): low polyreactivity

Sequence: QVQIVESGGGLVQAGGSLRLRCAASGSIFSTYAMGWYRQEPGKERELVADISGRVGSTYYADSVKGRFTISRDNAKNTVYLQMNSLKPEDTAVYYCAAALDFWPGYEYYYWGQGTQVTVSS
- polyreactivity (PSR sort gate): low polyreactivity

Sequence: QVQLVDSGGAIVQAGGSLRLSCAASGRTYHRNSKGWYRQAPGKERELVAAITGDGRTNYADSVKGRFTISRDNAKNTVFLPINSLKPEDTAVYYCAATFGFFYYHYDYWGQGTQVTVSS
- polyreactivity (PSR sort gate): low polyreactivity

Sequence: QVQLVESVGGLVQAGGSLRLSCAATGFILAPYAMGWYRQSPGKETELVAAITRSGGITYYADSVKGRFTISRDNAKNTVYLQMNSLKPEDTAVYYCAARNYRYRYARAYDYWGQGTQVTVSS
- polyreactivity (PSR sort gate): high polyreactivity

Sequence: QVQLVESGGGLVQAGGSLRLSCAAYGIIFRRNAMGWYRQAPGKERELVAAISWSGGTTYYADSVKGRFTISRDNAKYTVYLQIISLKPEDTAVYYCAAGLISRPYGYDYWGQCTQVTVSS
- polyreactivity (PSR sort gate): high polyreactivity

Sequence: QVQLVESGGGLVQAGGSLRLSCAASGSTIYFNGMGWYRQAPGKERELVAAITSGGSTDYADSVKGRFTISRDNAKNTVDLQMNSLKPEDTAVYYCAADGEDSLWTGYDYDYWGQGTQVTVSS
- polyreactivity (PSR sort gate): low polyreactivity

Sequence: QVQLVESGGGLVQAGGSLRLSCAASGRIFVSNAMGWYRQAPGKERELVAAISKSGGRTYYADSVKGRFTISRDNAKNTVYLQMNSLKPEDTAVYYCAARSRVSPRYDYWGQGTQVTVSS
- polyreactivity (PSR sort gate): high polyreactivity

Sequence: QVQLVESGGGLVQAGGSLRLSCAASANTFPTNAMGWYRQAPGKEMELVATISLGAGSTHYADSVKVRFTISRDNAKNTVYLQMNSLTPEDTAVYYCAARSRRWYDYDYWGQGTQVTVSS
- polyreactivity (PSR sort gate): low polyreactivity

Sequence: QVQLVESGGGLVQAGGSLRLSCAASGRTFRAYAMGWYRQAPGKERELVAAITASGTSTYYADSVKGRFTISRDNAKNTVYLQMNSLKPEDTAVYYCARGSWRHFRLYGFDYWGQGTQVTVSS
- polyreactivity (PSR sort gate): low polyreactivity

Sequence: RVQLVESGGGLVQAGGSLRLSCAASGLIFYYNAMVWYRQAPGKERELVAAISTGGSTNYADSVKGRFTISRYNAKNTVYLQMNSLKPEDTAVYYCAAGTRKPYGYKMYYWGQGTQVTVSS
- polyreactivity (PSR sort gate): high polyreactivity

Sequence: QVQLVESGGGLVQAGGSLRLSCAASGSTFYRNAMGWYRQAPGKERELVAAITSRGTRTFYADSVKGRFTISRDNAKNTVYLQMNSLKPEDTAVYYCAVTYQAEYEYDYWGQGTQVTVSS
- polyreactivity (PSR sort gate): low polyreactivity

Sequence: QVQLVESGGGLFQAGGSLRLSCAASGFSFYGNTMGWYRQAPGKERELFASITSGSSTHYADSVKGRFTISRDNAKNTVYLQMNSLKPDDTAVYYCNVEDIQFGKYDYWGQGTQVTVSS
- polyreactivity (PSR sort gate): low polyreactivity

Sequence: QVQLVESGGGLLQAGGSLRLSCAASGSTCHRNTMGWSRQAPGKESELVAGISLRGVRTYYADSVKSRFTISRDNAKNTVYLQMNSLKPEDTAVYYCAAGGPYTRNFKLGYWGQGTQVTVSS
- polyreactivity (PSR sort gate): high polyreactivity

Sequence: QVQLVESGGGLVQAGGSLRLSCAASGSTFRWNAMGWYRQAPGKERELVAAISGNGGSTYYADSVKGRFTISRDNAKNTVYLHMNTLKPEYNAVYYCAARGYFCSSYKYDYRGQGTQVTVSS
- polyreactivity (PSR sort gate): high polyreactivity

Sequence: QVQLVESGGGLVQAGGSLRLSCAASGITFNSYRMVWYRQAPVKERELVAAISGSGSSTYYADSVKGRFTISRDNAKNTVYLQMNSLKPEDTGVYYCADVSGKNVDFVWVLAYPRLDYWGQGTQVTVSS
- polyreactivity (PSR sort gate): low polyreactivity

Sequence: QVQLVESGGGLVQAGGSLRLSCAASGLIFQTYAMGWSRQAPGKERELVATISGSTGGTYYADSVKGRFTISRDNAKNTVYLQMNSLKPEDTAVYYCNASVFQSEYDYWGQGTQVTVSS
- polyreactivity (PSR sort gate): low polyreactivity

Sequence: QVQLVESGGGLVQAGGSLRLRWDASGRILWYNAMGWYRQAPGKERELVAAIRSGGRTHYADSVKGRFTISRDNAKNTVYLQMNCLKPEDTAVYYCAARSVPYPYRRNPYDYWGQGTQVTVSS
- polyreactivity (PSR sort gate): high polyreactivity

Sequence: QVQLVESGGGLVQAGGSLRLSCAAYGSIISYTMGWYRQAPGKERELVAAITSGRITYYADSVKGRFTISRDNAKNTVSLQMNRLKQEDTAVYYCNNDVGFTRPLYYWGQGTQVTVSS
- polyreactivity (PSR sort gate): low polyreactivity
